Data on one substance can be found in doi:10.1101/2024.07.27.605439.

Assay [1] addresses Gαi1-V185F/H213Q double mutant (human) (UniProt P63096).
Assay [2] has as its target Gαi1-V185F single mutant (human) (UniProt P63096).
Assay [3] addresses Gαi1-H213Q single mutant (human) (UniProt P63096).
Assay [4] deals with Gαs-D229S single mutant (human) (UniProt P63092).
For assay [5], the target named is Gαs-F208V/D229S/Q236H triple mutant (human) (UniProt P63092).

In assay [1], “RGS domain of human RGS16 (residue 86–205) (domain or fragment)” came in with an EC50 of RGS16 GAP activity (dose response) towards Gαi1-V185F/H213Q of 45 nM. Moreover, the EC50 of RGS16 GAP activity (dose response) towards Gαi1-V185F in assay [2] was 4 nM. This substance also showed an EC50 of RGS16 GAP activity (dose response) towards Gαi1-H213Q in assay [3] of 7 nM. For the same substance, in assay [4], the EC50 of RGS16 GAP activity (dose response) towards Gαs-D229S is 800 nM. For the same substance, the EC50 of RGS16 GAP activity (dose response) towards Gαs-F208V/D229S/Q236H in assay [5] came to 9 nM.
